{"source": "patent US20180094059A1", "about": "(UNIVERSITAT STUTTGART, published 2018)", "binders": {"B1": {"name": "Db8-Glyco-scTRAIL3-FAVSGAA (other)", "chain": "LEASDYKDDDDKGAEVQLVESGGGLVQPGGSLRLSCAASGFSLTNYGVHWVRQAPGKGLEWLGVIWSGGNTDYNTPFTSRFTISRDNSKNTLYLQMNSLRAEDTAVYYCARALTYYDYEFAYWGQGTTVTVSSGGGGSGGGDIQLTQSPSFLSASVGDRVTITCRASQSIGTNIHWYQQKPGKAPKLLIKYASESISGVPSRFSGSGSGTEFTLTISSLQPEDFATYYCQQNNNWPTTFGAGTKLEIKRAAAGNGTSNGTSEFGGAAAHITGTRGRSNTLSSPNSKNEKALGRKINSWESSRSGHSFLSNLHLRNGELVIHEKGFYYIYSQTYFRFQEEIKENTKNDKQMVQYIYKYTSYPDPILLMKSARNSCWSKDAEYGLYSIYQGGIFELKENDRIFVSVTNEHLIDMDHEASFFGAFAVSGAAAHITGTRGRSNTLSSPNSKNEKALGRKINSWESSRSGHSFLSNLHLRNGELVIHEKGFYYIYSQTYFRFQEEIKENTKNDKQMVQYIYKYTSYPDPILLMKSARNSCWSKDAEYGLYSIYQGGIFELKENDRIFVSVTNEHLIDMDHEASFFGAFAVSGAAAHITGTRGRSNTLSSPNSKNEKALGRKINSWESSRSGHSFLSNLHLRNGELVIHEKGFYYIYSQTYFRFQEEIKENTKNDKQMVQYIYKYTSYPDPILLMKSARNSCWSKDAEYGLYSIYQGGIFELKENDRIFVSVTNEHLIDMDHEASFFGAFAVS", "modifications": "glycosylated connecting peptide"}, "B2": {"name": "Dbhu225-scTRAIL3-FLVGGGPQRVA (other, not shown: small tags and cut ends)", "chain": "DYKDDDDKGGGGSGTEVQLVESGGGLVQPGGSLRLSCAASGFSLTNYGVHWVRQAPGKGLEWLGVIWSGGNTDYNTPFTSRFTISRDNSKNTLYLQMNSLRAEDTAVYYCARALTYYDYEFAYWGQGTTVTVSSGGGGSDIQLTQSPSFLSASVGDRVTITCRASQSIGTNIHWYQQKPGKAPKLLIKYASESISGVPSRFSGSGSGTEFTLTISSLQPEDFATYYCQQNNNWPTTFGAGTKLEIKRAAAGGSGGGPQRVAAHITGTRGRSNTLSSPNSKNEKALGRKINSWESSRSGHSFLSNLHLRNGELVIHEKGFYYIYSQTYFRFQEEIKENTKNDKQMVQYIYKYTSYPDPILLMKSARNSCWSKDAEYGLYSIYQGGIFELKENDRIFVSVTNEHLIDMDHEASFFGAFLVGGGPQRVAAHITGTRGRSNTLSSPNSKNEKALGRKINSWESSRSGHSFLSNLHLRNGELVIHEKGFYYIYSQTYFRFQEEIKENTKNDKQMVQYIYKYTSYPDPILLMKSARNSCWSKDAEYGLYSIYQGGIFELKENDRIFVSVTNEHLIDMDHEASFFGAFLVGGGPQRVAAHITGTRGRSNTLSSPNSKNEKALGRKINSWESSRSGHSFLSNLHLRNGELVIHEKGFYYIYSQTYFRFQEEIKENTKNDKQMVQYIYKYTSYPDPILLMKSARNSCWSKDAEYGLYSIYQGGIFELKENDRIFVSVTNEHLIDMDHEASFFGAFLVG"}, "B3": {"name": "dsDbhu225-scTRAIL3-FLVGGGPQRVA (other, not shown: small tags and cut ends)", "chain": "DYKDDDDKGGGGSGTEVQLVESGGGLVQPGGSLRLSCAASGFSLTNYGVHWVRQAPGKCLEWLGVIWSGGNTDYNTPFTSRFTISRDNSKNTLYLQMNSLRAEDTAVYYCARALTYYDYEFAYWGQGTTVTVSSGGGGSDIQLTQSPSFLSASVGDRVTITCRASQSIGTNIHWYQQKPGKAPKLLIKYASESISGVPSRFSGSGSGTEFTLTISSLQPEDFATYYCQQNNNWPTTFGCGTKLEIKRAAAGGSGGGPQRVAAHITGTRGRSNTLSSPNSKNEKALGRKINSWESSRSGHSFLSNLHLRNGELVIHEKGFYYIYSQTYFRFQEEIKENTKNDKQMVQYIYKYTSYPDPILLMKSARNSCWSKDAEYGLYSIYQGGIFELKENDRIFVSVTNEHLIDMDHEASFFGAFLVGGGPQRVAAHITGTRGRSNTLSSPNSKNEKALGRKINSWESSRSGHSFLSNLHLRNGELVIHEKGFYYIYSQTYFRFQEEIKENTKNDKQMVQYIYKYTSYPDPILLMKSARNSCWSKDAEYGLYSIYQGGIFELKENDRIFVSVTNEHLIDMDHEASFFGAFLVGGGPQRVAAHITGTRGRSNTLSSPNSKNEKALGRKINSWESSRSGHSFLSNLHLRNGELVIHEKGFYYIYSQTYFRFQEEIKENTKNDKQMVQYIYKYTSYPDPILLMKSARNSCWSKDAEYGLYSIYQGGIFELKENDRIFVSVTNEHLIDMDHEASFFGAFLVG"}, "B4": {"name": "Db-Glyco-scTRAIL3-FAVSGAA (other)", "chain": "LEASDYKDDDDKGAEVQLVESGGGLVQPGGSLRLSCAASGFSLTNYGVHWVRQAPGKGLEWLGVIWSGGNTDYNTPFTSRFTISRDNSKNTLYLQMNSLRAEDTAVYYCARALTYYDYEFAYWGQGTTVTVSSGGGGSDIQLTQSPSFLSASVGDRVTITCRASQSIGTNIHWYQQKPGKAPKLLIKYASESISGVPSRFSGSGSGTEFTLTISSLQPEDFATYYCQQNNNWPTTFGAGTKLEIKRAAAGNGTSNGTSEFGGAAAHITGTRGRSNTLSSPNSKNEKALGRKINSWESSRSGHSFLSNLHLRNGELVIHEKGFYYIYSQTYFRFQEEIKENTKNDKQMVQYIYKYTSYPDPILLMKSARNSCWSKDAEYGLYSIYQGGIFELKENDRIFVSVTNEHLIDMDHEASFFGAFAVSGAAAHITGTRGRSNTLSSPNSKNEKALGRKINSWESSRSGHSFLSNLHLRNGELVIHEKGFYYIYSQTYFRFQEEIKENTKNDKQMVQYIYKYTSYPDPILLMKSARNSCWSKDAEYGLYSIYQGGIFELKENDRIFVSVTNEHLIDMDHEASFFGAFAVSGAAAHITGTRGRSNTLSSPNSKNEKALGRKINSWESSRSGHSFLSNLHLRNGELVIHEKGFYYIYSQTYFRFQEEIKENTKNDKQMVQYIYKYTSYPDPILLMKSARNSCWSKDAEYGLYSIYQGGIFELKENDRIFVSVTNEHLIDMDHEASFFGAFAVS", "modifications": "two N-glycosylation sites in the peptide AAAGNGTSNGTSEFGG, shown to be glycosylated"}, "B5": {"name": "Db-Glyco-scTRAIL3-FAVSGIA (other)", "chain": "LEASDYKDDDDKGAEVQLVESGGGLVQPGGSLRLSCAASGFSLTNYGVHWVRQAPGKGLEWLGVIWSGGNTDYNTPFTSRFTISRDNSKNTLYLQMNSLRAEDTAVYYCARALTYYDYEFAYWGQGTTVTVSSGGGGSDIQLTQSPSFLSASVGDRVTITCRASQSIGTNIHWYQQKPGKAPKLLIKYASESISGVPSRFSGSGSGTEFTLTISSLQPEDFATYYCQQNNNWPTTFGAGTKLEIKRAAAGNGTSNGTSEFGGIAAHITGTRGRSNTLSSPNSKNEKALGRKINSWESSRSGHSFLSNLHLRNGELVIHEKGFYYIYSQTYFRFQEEIKENTKNDKQMVQYIYKYTSYPDPILLMKSARNSCWSKDAEYGLYSIYQGGIFELKENDRIFVSVTNEHLIDMDHEASFFGAFAVSGIAAHITGTRGRSNTLSSPNSKNEKALGRKINSWESSRSGHSFLSNLHLRNGELVIHEKGFYYIYSQTYFRFQEEIKENTKNDKQMVQYIYKYTSYPDPILLMKSARNSCWSKDAEYGLYSIYQGGIFELKENDRIFVSVTNEHLIDMDHEASFFGAFAVSGIAAHITGTRGRSNTLSSPNSKNEKALGRKINSWESSRSGHSFLSNLHLRNGELVIHEKGFYYIYSQTYFRFQEEIKENTKNDKQMVQYIYKYTSYPDPILLMKSARNSCWSKDAEYGLYSIYQGGIFELKENDRIFVSVTNEHLIDMDHEASFFGAFAVS", "modifications": "glycosylated connecting peptide"}}, "key": {"[1]": {"target": "T1, EGFR on EGFR-positive tumor cell lines (UniProt P00533 25-1210, limits assumed)", "experiment": "cell-based or functional assay"}, "[2]": {"target": "T1, EGFR on EGFR-positive tumor cell lines", "experiment": "cell-based or functional assay", "remark": "listed apart in the source"}}, "note": "Where two headings read alike, the source gives them in different places.", "data": [{"binder": "B1", "values": [{"measurement": "EC50 of cell death induction, Colo205, with Bortezomib", "setting": "[1]", "result": 26, "unit": "pM"}, {"measurement": "EC50 of cell death induction, Colo205, with Bortezomib + Cetuximab", "setting": "[1]", "result": 61, "unit": "pM"}, {"measurement": "EC50 of cell death induction, HCT116, with Bortezomib", "setting": "[1]", "result": 51, "unit": "pM"}, {"measurement": "EC50 of cell death induction, HCT116, with Bortezomib + Cetuximab", "setting": "[1]", "result": 300, "unit": "pM"}, {"measurement": "EC50 of cell death induction, HT1080, with Bortezomib", "setting": "[1]", "result": 0.9, "unit": "pM"}, {"measurement": "EC50 of cell death induction, HT1080, with Bortezomib + Cetuximab", "setting": "[1]", "result": 7, "unit": "pM"}]}, {"binder": "B2", "values": [{"measurement": "EC50 of cell death induction, Colo205, with Bortezomib", "setting": "[2]", "result": 3.8, "unit": "pM"}, {"measurement": "EC50 of cell death induction, Colo205, without bortezomib", "setting": "[2]", "result": 41, "unit": "pM"}, {"measurement": "EC50 of cell death induction, Colo205 in presence of Cetuximab, with bortezomib", "setting": "[2]", "result": 13.8, "unit": "pM"}, {"measurement": "EC50 of cell death induction, Colo205 in presence of Cetuximab, without bortezomib", "setting": "[2]", "result": 102, "unit": "pM"}]}, {"binder": "B3", "values": [{"measurement": "EC50 of cell death induction, Colo205, with Bortezomib", "setting": "[2]", "result": 2.5, "unit": "pM"}, {"measurement": "EC50 of cell death induction, Colo205, without bortezomib", "setting": "[2]", "result": 21.2, "unit": "pM"}, {"measurement": "EC50 of cell death induction, Colo205 in presence of Cetuximab, with bortezomib", "setting": "[2]", "result": 7.2, "unit": "pM"}, {"measurement": "EC50 of cell death induction, Colo205 in presence of Cetuximab, without bortezomib", "setting": "[2]", "result": 42.3, "unit": "pM"}]}, {"binder": "B4", "values": [{"measurement": "EC50 of cell death induction, Colo205, with Bortezomib", "setting": "[1]", "result": 33, "unit": "pM"}, {"measurement": "EC50 of cell death induction, Colo205, with Bortezomib + Cetuximab", "setting": "[1]", "result": 74, "unit": "pM"}, {"measurement": "EC50 of cell death induction, HCT116, with Bortezomib", "setting": "[1]", "result": 66, "unit": "pM"}, {"measurement": "EC50 of cell death induction, HCT116, with Bortezomib + Cetuximab", "setting": "[1]", "result": 450, "unit": "pM"}, {"measurement": "EC50 of cell death induction, HT1080, with Bortezomib", "setting": "[1]", "result": 1, "unit": "pM"}, {"measurement": "EC50 of cell death induction, HT1080, with Bortezomib + Cetuximab", "setting": "[1]", "result": 10, "unit": "pM"}]}, {"binder": "B5", "values": [{"measurement": "EC50 of cell death induction, Colo205, with Bortezomib", "setting": "[1]", "result": 19, "unit": "pM"}, {"measurement": "EC50 of cell death induction, Colo205, with Bortezomib + Cetuximab", "setting": "[1]", "result": 32, "unit": "pM"}, {"measurement": "EC50 of cell death induction, HCT116, with Bortezomib", "setting": "[1]", "result": 43, "unit": "pM"}, {"measurement": "EC50 of cell death induction, HCT116, with Bortezomib + Cetuximab", "setting": "[1]", "result": 161, "unit": "pM"}, {"measurement": "EC50 of cell death induction, HT1080, with Bortezomib", "setting": "[1]", "result": 0.6, "unit": "pM"}, {"measurement": "EC50 of cell death induction, HT1080, with Bortezomib + Cetuximab", "setting": "[1]", "result": 5, "unit": "pM"}]}]}
